Data from patent US7387779B2, “Anti-angiogenic proteins and fragments and methods of use thereof” (Beth Israel Deaconess Medical Center, priority 1998, dated 2008).

B1: endostatin: tumor associated angiogenesis inhibitor used as comparator (protein, UniProt P39060 1572-1754, looked up)
Endostatin: HSHRDFQPVLHLVALNSPLSGGMRGIRGADFQCFQQARAVGLAGTFRAFLSSRLQDLYSIVRRADRAAVPIVNLKDELLFPSWEALFSGSEGPLKPGARIFSFDGKDVLRHPTWPQKSVWHGSDPNGRRLTESYCETWRTEAPSATGQASSLLGGRLLGQSAASCHHAYIVLCIENSFMTASK
modifications: Endostatin
B2: Tumstatin-44-131: residues 44 to 131 of full-length Tumstatin (SEQ ID NO:33) (protein)
chain: FSFLFVQGNQRAHGQDLGTLGSCLQRFTTMPFLFCNVNDVCNFASRNDYSYWLSTPALMPMNMAPITGRALEPYISRCTVCEGPAIAI
modifications: Tumstatin-45-132 (amino acids 45-132 of SEQ ID NO10)

How the values were obtained:
[1] = test system: A-498 (renal carcinoma) cells; experiment: Proliferation of control cells, 3H-thymidine incorporation; type: cell-based; details: endostatin 0.1-10 μg/ml
Method: C-PAE cells were grown to confluence in DMEM with 10% fetal calf serum (FCS) and kept contact inhibited for 48 hours. Control cells were 786-O (renal carcinoma) cells, PC-3 cells, HPEC cells, and A-498 (renal carcinoma) cells. Cells were harvested with trypsinization (Life Technologies/Gibco BRL, Gaithersburg, Md., USA) at 37° C. for five minutes. A suspension of 12,500 cells in DMEM with 1% FCS was added to each well of a 24-well plate coated with 10 μg/ml fibronectin. The cells were incubated for 24 hours at 37° C. with 5% CO2 and 95% humidity. Medium was removed and replaced with DMEM containing 0.5% FCS and 3 ng/ml bFGF (R&D Systems, Minneapolis, Minn., USA). Unstimulated controls received no bFGF. Cells were treated with concentrations of Arresten or endostatin ranging from 0.01 to 50 μg/ml. All wells received 1 μCurie of ^3H-thymidine at the time of treatment. After 24 hours, medium was removed and the wells were washed with PBS. Cells were extracted with 1N NaOH and added to a scintillation vial containing 4 ml of ScintiVerse II (Fisher Scientific, Pittsburgh, Pa., USA) solution. Thymidine incorporation was measured using a scintillation counter. The results are shown in FIGS. 3A and 3B, which are a pair of graphs showing incorporation of ^3H-thymidine into C-PAE cells treated with varying amounts of Arresten (FIG. 3A) or endostatin (FIG. 3B). […]

HUVEC cells = experiment: Cell surface labeling with biotinylated Tumstatin-44-131; type: binding, human; details: streptavidin-FITC
Method: Recombinant E. Coli-expressed Tumstatin-44-131 was biotinylated using Sulfo-NHS-LC-Biotin (Pierce Chem. Co). Tumstatin-44-131, in a buffer containing 10% DMSO and 5% D-mannitol, was incubated with 12 M excess of Sulfo-NHS-LC-Biotin overnight at 4° C. The biotinylated Tumstatin-44-131 precipitated out of solution during this incubation. The precipitate was washed twice with distilled water, resuspended in DMSO, and then mixed 1:1 with distilled water to obtain a final concentration of approximately 4 mg/ml. The biotinylated Tumstatin-44-131 was stored at 4° C.
For cell surface labeling, subconfluent HUVEC cells were removed from the flask using EDTA with light trypsinization, and then washed twice with DMEM containing 2% BSA. Cells were then resuspended in DMEM/BSA and incubated for 1 hour at 4° C. with either biotin-labeled Tumstatin-44-131 or the product of a mock biotin reaction run without Tumstatin-44-131. Cells were then washed twice with DMEM/BSA and then incubated with streptavidin-FITC (“Neutravidin-FITC”, Pierce Chem. Co) for thirty minutes at 4° C. Samples were then viewed on a Nikon Eclipse E600 fluorescent microscope and analyzed by flow cytometry.

Molecule | effect on proliferation [1] | binding to the endothelial cell surface (HUVEC cells)
B1 | did not inhibit | –
B2 | – | binds the surface of endothelial cells
